Measurements as given in patent US20070020327A1.
Read-outs that look alike come from different tables or passages of the source. One block for each binder: values may come before it.

Tests used:
HLA-A*0202 (human) [1] = test: competition with 125I-labelled standard peptide 941.01 for purified HLA-A*0202, gel filtration
HLA-A*0201 (human) [2] = test: competition with 125I-labelled standard peptide 941.01 for purified HLA-A*0201, gel filtration
HLA-A*0203 (human) [3] = test: competition with 125I-labelled standard peptide 941.01 for purified HLA-A*0203, gel filtration
HLA-A*6802 (human) [4] = test: competition with 125I-labelled standard peptide 1072.34 for purified HLA-A*6802, gel filtration
HLA-A*0206 (human) [5] = test: competition with 125I-labelled standard peptide 941.01 for purified HLA-A*0206, gel filtration
HLA-A*0201 (human) [6] = test: competition for purified HLA with 125I-labelled standard peptide 941.01 [..] as competitor, gel filtration; conditions: scale: ratio
HLA-A*0203 (human) [7] = test: as above; conditions: scale: ratio
HLA-A*0206 (human) [8] = test: as above; conditions: scale: ratio
HLA-A*0202 (human) [9] = test: as above; conditions: scale: ratio
HLA-A*1101 (human) [10] = test: competition with 125I-labeled standard peptide for purified HLA-A*1101, gel filtration; relative binding
HLA-A*1101 (human) [11] = test: competition with a 125I-labelled probe peptide for purified HLA-A*1101, gel filtration; value relative to the standard peptide
HLA-B*0702 (human) = test: competition with 125I-labeled standard peptide (1075.23 [..]) for purified HLA-B*0702, gel filtration
HLA-A*1101 (human) [12] = test: inhibition of 125I-labeled probe peptide binding to purified HLA-A*1101, gel filtration; relative to standard peptide 940.06
HLA-A*0201 (human) [13] = test: competition with 125I-labelled standard peptide for purified HLA, gel filtration; ratio = IC50 standard / IC50 test peptide; conditions: remark: other sources report otherwise
HLA-A*0203 (human) [14] = test: as above; conditions: remark: other sources report otherwise
HLA-A*0206 (human) [15] = test: as above; conditions: remark: other sources report otherwise
HLA-A*0202 (human) [16] = test: as above; conditions: remark: other sources report otherwise
HLA-A*0201 (human) [17] = test: inhibition of 125I-standard peptide binding to purified HLA, gel filtration
HLA-A*0203 (human) [18] = test: as above
HLA-A*6802 (human) [19] = test: as above
HLA-A*0201 (human) [20] = test: competition with 125I-labelled standard peptide 941.01 ([..]) for purified HLA-A*0201, gel filtration
HLA-A*0206 (human) [21] = test: competition with 125I-labelled standard peptide 941.01 ([..]) for purified HLA-A*0206, gel filtration
HLA-A*0202 (human) [22] = test: competition with 125I-labelled standard peptide 941.01 ([..]) for purified HLA-A*0202, gel filtration
[23] = target: HLA-A*0206 (purified HLA class I molecule) (human); test: competition with 125I-labelled standard peptide for purified HLA, gel filtration
[24] = target: HLA-A*0201 (purified HLA class I molecule) (human); test: as above
[25] = target: HLA-A*0202 (purified HLA class I molecule) (human); test: as above
HLA-A*0201 (human) [26] = test: competition binding to purified HLA, 125I-labelled standard peptide, gel filtration; ratio = IC50 standard / IC50 test peptide
HLA-A*0203 (human) [27] = test: as above
HLA-A*0206 (human) [28] = test: inhibition of 125I-standard peptide binding to purified HLA, gel filtration
HLA-A*0201 (human) [29] = test: inhibition of 125I probe peptide binding to purified HLA, gel filtration; ratio = IC50 standard/IC50 test
HLA-A*0206 (human) [30] = test: as above
HLA-A*0202 (human) [31] = test: as above
HLA-A*6802 (human) [32] = test: as above
HLA-A*1101 (human) [33] = test: competition with 125I-labelled standard peptide for purified HLA, gel filtration; conditions: scale: ratio
HLA-A*6801 (human) = test: as above; conditions: scale: ratio
HLA-A*0301 (human) = test: as above; conditions: scale: ratio
HLA-A*3301 (human) = test: as above; conditions: scale: ratio
[34] = remark: other sources report otherwise

- binding affinity ratio (IC50 of standard peptide / IC50 of test peptide) (HLA-A*0202 (human) [1]): -0.0002
- binding affinity ratio (IC50 of standard peptide / IC50 of test peptide) (HLA-A*0201 (human) [2]): -0.0001
- binding affinity ratio (IC50 of standard peptide / IC50 of test peptide) (HLA-A*0203 (human) [3]): 0.0009
- binding affinity ratio (IC50 of standard peptide / IC50 of test peptide) (HLA-A*6802 (human) [4]): -0.0002
- binding affinity ratio (IC50 of standard peptide / IC50 of test peptide) (HLA-A*0206 (human) [5]): -0.0001
Binder: RLSEPAKIT (modifications not checked) [… (Kallikrein, position 125)]

- binding affinity ratio (HLA-A*0201 (human) [6]): 0.0001
- binding affinity ratio (HLA-A*0203 (human) [7]): -0.0001
- binding affinity ratio (HLA-A*0206 (human) [8]): -0.0001
- binding affinity ratio (HLA-A*0202 (human) [9]): -0.0002
Binder: IALSVGCT (modifications not checked) [IALSVGCT (Kallikrein position 8, 8-mer)]

- binding affinity ratio (HLA-A*0201 (human) [6]; [34]): 0.0009
- binding affinity ratio (HLA-A*0203 (human) [7]; [34]): 0.027
- binding affinity ratio (HLA-A*0206 (human) [8]; [34]): 0.01
- binding affinity ratio (HLA-A*0202 (human) [9]; [34]): 0.0032
Binder: IALSVGCTGAV (modifications not checked) [… (Kallikrein position 8, 11-mer)]

- binding affinity ratio (IC50 of standard peptide / IC50 of test peptide) (HLA-A*1101 (human) [10]; [34]): 0.0002
Binder: KGEYFVEMY (modifications not checked) [PAP 322 …]

- binding affinity ratio (IC50 of standard peptide / IC50 of test peptide) (HLA-A*0202 (human) [1]): -0.0001
- binding affinity ratio (IC50 of standard peptide / IC50 of test peptide) (HLA-A*0201 (human) [2]): -0.0001
- binding affinity ratio (IC50 of standard peptide / IC50 of test peptide) (HLA-A*0203 (human) [3]): 0.0003
- binding affinity ratio (IC50 of standard peptide / IC50 of test peptide) (HLA-A*6802 (human) [4]): -0.0001
- binding affinity ratio (IC50 of standard peptide / IC50 of test peptide) (HLA-A*0206 (human) [5]): -0.0001
Binder: RAVCGGVL (modifications not checked) [RAVCGGVL (PSA, position 43)]

- binding affinity ratio (IC50 of standard peptide / IC50 of test peptide) (HLA-A*1101 (human) [11]; [34]): 0.0002
Binder: ESYKHEQVY (modifications not checked) [PAP peptide … (position 95, 9 amino acids)]

- binding affinity ratio (IC50 of standard peptide / IC50 of test peptide) (HLA-B*0702 (human)): 0.0001
Binder: YPNKTHPNY (modifications not checked) [PSM peptide … (position 119, 9 amino acids)]

- binding affinity ratio (IC50 of standard peptide / IC50 of test peptide) (HLA-A*1101 (human) [11]): 0.0002
Binder: ETYELVEKFY (modifications not checked) [PSM peptide … (position 557, 10 amino acids)]

- binding affinity ratio (IC50 of standard peptide / IC50 of test peptide) (HLA-A*0202 (human) [1]): -0.0001
- binding affinity ratio (IC50 of standard peptide / IC50 of test peptide) (HLA-A*0201 (human) [2]): -0.0001
- binding affinity ratio (IC50 of standard peptide / IC50 of test peptide) (HLA-A*0203 (human) [3]): 0.0003
- binding affinity ratio (IC50 of standard peptide / IC50 of test peptide) (HLA-A*6802 (human) [4]): -0.0001
- binding affinity ratio (IC50 of standard peptide / IC50 of test peptide) (HLA-A*0206 (human) [5]): 0.0001
Binder: RAYSEKVT (modifications not checked) [RAYSEKVT (Kallikrein, position 186)]

- binding affinity ratio (IC50 of standard peptide / IC50 of test peptide) (HLA-A*1101 (human) [12]): 0.0002
Binder: DALFDIESK (modifications not checked) [PSM peptide … (position 710, 9 amino acids)]

- binding affinity ratio (ratio to standard peptide) (HLA-A*0201 (human) [13]): 0.0084
- binding affinity ratio (ratio to standard peptide) (HLA-A*0203 (human) [14]): 0.052
- binding affinity ratio (ratio to standard peptide) (HLA-A*0206 (human) [15]): 0.0037
- binding affinity ratio (ratio to standard peptide) (HLA-A*0202 (human) [16]): 0.022
Binder: PTQEPALGTT (modifications not checked) [Kallikrein (hK2) peptide …, position 142, 10 amino acids]

- binding affinity ratio (IC50 of standard peptide / IC50 of test peptide) (HLA-A*1101 (human) [12]): 0.0006
Binder: CSPSCPLER (modifications not checked) [PAP peptide … (position 347, 9 amino acids)]

- binding affinity ratio (IC50 standard peptide / IC50 test peptide) (ratio to standard peptide) (HLA-A*0201 (human) [17]): 0.0003
- binding affinity ratio (IC50 standard peptide / IC50 test peptide) (ratio to standard peptide) (HLA-A*0203 (human) [18]): 0.0003
- binding affinity ratio (IC50 standard peptide / IC50 test peptide) (ratio to standard peptide) (HLA-A*6802 (human) [19]): -0.0001
Binder: LLSNDMCA (modifications not checked) [Kallikrein 178 LLSNDMCA]

- binding affinity ratio (IC50 of standard peptide / IC50 of test peptide) (HLA-A*0201 (human) [20]): -0.0001
- binding affinity ratio (IC50 of standard peptide / IC50 of test peptide) (HLA-A*0206 (human) [21]): 0.0005
- binding affinity ratio (IC50 of standard peptide / IC50 of test peptide) (HLA-A*0202 (human) [22]): 0.0009
Binder: TTCYASGWGSI (modifications not checked) [Kallikrein (hK2) peptide … (position 150, 11 amino acids); the same letters in PSA at position 146]

- binding affinity ratio (IC50 of standard peptide / IC50 of test peptide) [23]: -0.0001
- binding affinity ratio (IC50 of standard peptide / IC50 of test peptide) [24]: 0.0002
Binder: NLFEPEDT (modifications not checked) [Kallikrein (hK2) peptide NLFEPEDT (position 79, 8 amino acids)]

- binding affinity ratio (IC50 of standard peptide / IC50 of test peptide) [25, 34]: 0.003
Binder: LVLAGGFFL (modifications not checked) [PSM peptide … (position 26, 9 amino acids)]

- binding affinity ratio (HLA-A*0201 (human) [26]): 0.0001
- binding affinity ratio (HLA-A*0203 (human) [27]): 0.0005
Binder: DTCGGDSGGPL (modifications not checked) [… (Kallikrein, position 207, 11 amino acids)]

- binding affinity ratio (IC50 standard peptide / IC50 test peptide) (ratio to standard peptide) (HLA-A*0201 (human) [17]): 0.0002
- binding affinity ratio (IC50 standard peptide / IC50 test peptide) (ratio to standard peptide) (HLA-A*0206 (human) [28]): -0.0001
- binding affinity ratio (IC50 standard peptide / IC50 test peptide) (ratio to standard peptide) (HLA-A*6802 (human) [19]): -0.0001
Binder: LLRLSEPAKIT (modifications not checked) [Kallikrein 123 …]

- binding affinity ratio (HLA-A*0201 (human) [29]): 0.0003
- binding affinity ratio (HLA-A*0206 (human) [30]): 0.0005
- binding affinity ratio (HLA-A*0202 (human) [31]): 0.005
- binding affinity ratio (HLA-A*6802 (human) [32]): -0.0001
Binder: ALPEKPAVYT (modifications not checked) [… (Kallikrein, position 235)]

- binding affinity ratio (IC50 of standard peptide / IC50 of test peptide) (HLA-A*1101 (human) [10]): 0.0002
Binder: LAGAKGVILY (modifications not checked) [PSM 219 …]

- binding affinity ratio (IC50 of standard peptide / IC50 of test peptide) [23]: 0.0001
- binding affinity ratio (IC50 of standard peptide / IC50 of test peptide) [25]: 0.002
Binder: MLCAGLWT (modifications not checked) [Kallikrein (hK2) peptide MLCAGLWT (position 196, 8 amino acids)]

- binding affinity ratio (HLA-A*0201 (human) [29]; [34]): 0.0003
- binding affinity ratio (HLA-A*0206 (human) [30]; [34]): 0.0001
- binding affinity ratio (HLA-A*0202 (human) [31]; [34]): 0.0006
Binder: AAHCLKKNSQV (modifications not checked) [… (Kallikrein, position 63)]

- binding affinity ratio (HLA-A*1101 (human) [33]): 0.0002
- binding affinity ratio (HLA-A*6801 (human)): 0.0001
- binding affinity ratio (HLA-A*0301 (human)): 0.0002
- binding affinity ratio (HLA-A*3301 (human)): 0.0006
Binder: PAELTDAVK (modifications not checked) [… (PSA, position 125)]

- binding affinity ratio (ratio to standard peptide) (HLA-A*0201 (human) [13]): 0.0084
- binding affinity ratio (ratio to standard peptide) (HLA-A*0203 (human) [14]): 0.052
- binding affinity ratio (ratio to standard peptide) (HLA-A*0206 (human) [15]): 0.0037
- binding affinity ratio (ratio to standard peptide) (HLA-A*0202 (human) [16]): 0.022
Binder: PTQEPALGTT (modifications not checked) [PSA peptide …, position 138, 10 amino acids]

- binding affinity ratio (HLA-A*0201 (human) [29]; [34]): 0.0009
- binding affinity ratio (HLA-A*0206 (human) [30]; [34]): 0.0001
- binding affinity ratio (HLA-A*0202 (human) [31]; [34]): 0.02
- binding affinity ratio (HLA-A*6802 (human) [32]; [34]): -0.0001
Binder: ALPEKPAV (modifications not checked) [ALPEKPAV (Kallikrein, position 235)]
